PMC2174279 (The Journal of Cell Biology, 2000)
Values belong to the binder of their own block, whether it stands above or below them.

How the values were obtained:
Test in all cases: two-hybrid
[1] = molecular target: T1, peptide PRP1 (QPDHPPPSPP), LexA bait
T1 peptide: QPDHPPPSPP

[2] = molecular target: T2, peptide PRP2 (PPPYQAPHPP), LexA bait
T2 peptide: PPPYQAPHPP

[3] = molecular target: T3, peptide PBS2 (NKPLPPLPVA), LexA bait (S. cerevisiae)
T3 peptide: NKPLPPLPVA

LacZ expression (two-hybrid) [1]: 406 Miller units | LacZ expression (two-hybrid) [2]: 255 Miller units
B1: Myo5p-SH3-AD (1020-1219) (domain or fragment)
chain: NKAATRRSVPNPASTLTASQSNARPSPPTAATRATPAATPAAAAMGSGRQANIPPPPPPPPPSSKPKEPMFEAAYDFPGSGSPSELPLKKGDVIYITREEPSGWSLGKLLDGSKEGWVPTAYMKPHSGNNNIPTPPQNRDVPKPVLNSVQHDNTSANVIPAAAQASLGDGLANALAARANKMRLESDDEEANEDEEEDDW

LacZ expression (two-hybrid) [3]: 190 Miller units
B2: SH3 domain of Sho1p (176-367) (domain or fragment)
chain: not shown
